Test results taken from the Immune Epitope Database (IEDB).

Legend:
[1] = biological target: HLA-A*02:01; assay: IEDB peptide-MHC binding, purified MHC/competitive/radioactivity; filed as Kd, often an IC50 or EC50 that approximates it; ≥ and ≤ were set here for values at or beyond the usual limits of such assays
[2] = biological target: HLA-A*02:01; assay: IEDB peptide-MHC binding, purified MHC/competitive/fluorescence; filed as Kd, often an IC50 or EC50 that approximates it; ≥ and ≤ were set here for values at or beyond the usual limits of such assays
[3] = biological target: HLA-A*23:01; assay: IEDB peptide-MHC binding, purified MHC/competitive/radioactivity; filed as Kd, often an IC50 or EC50 that approximates it; ≥ and ≤ were set here for values at or beyond the usual limits of such assays
[4] = biological target: HLA-A*29:02; assay: as above
[5] = biological target: HLA-A*30:02; assay: as above
[6] = biological target: HLA-A*26:01; assay: as above
[7] = biological target: HLA-A*24:02; assay: as above
[8] = biological target: HLA-A*01:01; assay: IEDB peptide-MHC binding, purified MHC/direct/fluorescence; filed as Kd, often an IC50 or EC50 that approximates it; ≥ and ≤ were set here for values at or beyond the usual limits of such assays; settings: source organism: SARS-CoV1
[9] = biological target: HLA-A*11:01; assay: as above; settings: source organism: SARS-CoV1
[10] = biological target: HLA-B*15:01; assay: as above; settings: source organism: SARS-CoV1
[11] = biological target: HLA-B*58:01; assay: as above; settings: source organism: SARS-CoV1
[12] = biological target: HLA-B*15:01; assay: IEDB peptide-MHC binding, purified MHC/competitive/radioactivity; filed as Kd, often an IC50 or EC50 that approximates it; ≥ and ≤ were set here for values at or beyond the usual limits of such assays
[13] = biological target: HLA-B*15:01; assay: IEDB peptide-MHC binding, purified MHC/competitive/fluorescence; filed as Kd, often an IC50 or EC50 that approximates it; ≥ and ≤ were set here for values at or beyond the usual limits of such assays
[14] = biological target: HLA-A*02:02; assay: IEDB peptide-MHC binding, purified MHC/competitive/radioactivity; filed as Kd, often an IC50 or EC50 that approximates it; ≥ and ≤ were set here for values at or beyond the usual limits of such assays
[15] = biological target: HLA-A*02:06; assay: as above
[16] = biological target: HLA-A*02:03; assay: as above
[17] = biological target: HLA-B*51:01; assay: as above; settings: source organism: Dengue virus 1 Brazil/97-11/1997
[18] = biological target: HLA-B*35:01; assay: as above
[19] = biological target: HLA-B*07:02; assay: as above
[20] = biological target: HLA-A*01:01; assay: as above
[21] = biological target: HLA-A*03:01; assay: IEDB peptide-MHC binding, purified MHC/direct/fluorescence; filed as Kd, often an IC50 or EC50 that approximates it; ≥ and ≤ were set here for values at or beyond the usual limits of such assays; settings: source organism: SARS-CoV1
[22] = biological target: HLA-A*69:01; assay: as above; settings: source organism: SARS-CoV1
[23] = biological target: HLA-A*32:01; assay: IEDB peptide-MHC binding, purified MHC/competitive/radioactivity; filed as Kd, often an IC50 or EC50 that approximates it; ≥ and ≤ were set here for values at or beyond the usual limits of such assays
[24] = biological target: HLA-A*30:01; assay: as above
[25] = biological target: HLA-A*03:01; assay: as above
[26] = biological target: HLA-A*11:01; assay: as above; settings: source organism: SARS coronavirus Tor2
[27] = biological target: HLA-A*33:01; assay: as above; settings: source organism: SARS coronavirus Tor2
[28] = biological target: HLA-A*31:01; assay: as above; settings: source organism: SARS coronavirus Tor2
[29] = biological target: HLA-A*68:01; assay: as above; settings: source organism: SARS coronavirus Tor2
[30] = source organism: SARS coronavirus Tor2
[31] = source organism: Dengue virus 2 Jamaica/1409/1983
[32] = source organism: Vaccinia virus WR
[33] = source organism: Dengue virus 1 Brazil/97-11/1997
[34] = source organism: Bacillus cereus G9241
[35] = source organism: Dengue virus 4 Philippines/H241/1956
[36] = source organism: Mammarenavirus juninense
[37] = source organism: Dengue virus 3 Martinique/1243/1999
[38] = source organism: Mammarenavirus guanaritoense
[39] = source organism: Mammarenavirus machupoense
[40] = source organism: Vaccinia virus Copenhagen

VIEEVMNIV
Kd ([1]; source organism: Lassa virus GA391): 6250 nM

FQNWGIESI
Kd ([2]; source organism: Influenza A virus (A/Wilson-Smith/1933(H1N1))): 2.3 nM

TQDLFLPFY
Kd [3, 30]: ≥ 67400 nM | Kd [4, 30]: 426 nM | Kd [5, 30]: 5.13 nM | Kd [6, 30]: 16800 nM | Kd [7, 30]: ≥ 77600 nM | Kd [8]: 1810 nM | Kd [9]: 424 nM | Kd [10]: 1710 nM | Kd [11]: ≥ 31500 nM

LIIMDEAHF
Kd [12, 31]: 19 nM

NQYLLTMFF
Kd [12, 32]: 1.21 nM

FSPRLCRPF
Kd ([13]; source organism: Escherichia coli 536): 325 nM

RLNALGKSEF
Kd [12, 31]: 17.2 nM

LSEKWFTHA
Kd [12, 32]: 19100 nM

ALCKVTVPT
Kd [14, 32]: 110 nM | Kd [15, 32]: 210 nM | Kd [1, 32]: 31 nM | Kd [16, 32]: 130 nM

LINNGKCTF
Kd [12, 32]: 61.9 nM

LVEKVLKIL
Kd ([2]; source organism: Vaccinia virus): 992 nM

MPVTVASAAQ
Kd [17]: ≥ 69600 nM | Kd [18, 33]: 391 nM | Kd [19, 33]: 446 nM

SMPDFDLHL
Kd ([1]; source organism: Homo sapiens): 5.2 nM

RMFHFFEHE
Kd [12, 32]: 66.9 nM

FLETDAGRV
Kd ([1]; source organism: Variola virus): 100 nM

QWNLVIGFLF
Kd [3, 30]: 2.14 nM | Kd [4, 30]: 39.5 nM | Kd [20, 30]: ≥ 30600 nM | Kd [5, 30]: ≥ 26300 nM | Kd [6, 30]: ≥ 69700 nM | Kd [7, 30]: 5.64 nM

RTKAIGLNF
Kd [13, 34]: 84.7 nM

LLALQQLEV
Kd ([2]; source organism: SARS-CoV1): 2.7 nM | Kd [14, 30]: 0.138 nM | Kd [15, 30]: 41.9 nM | Kd [16, 30]: 0.295 nM | Kd [21]: 2020 nM | Kd [10]: 3790 nM | Kd [22]: 242 nM

ANISTILYF
Kd [12, 32]: 128 nM

AINVEKIEL
Kd [2, 32]: ≥ 20000 nM

DSSQGSEYDY
Kd [3, 30]: ≥ 70000 nM | Kd [4, 30]: 1350 nM | Kd [20, 30]: 151 nM | Kd [5, 30]: 151 nM | Kd [6, 30]: 7270 nM | Kd [7, 30]: ≥ 70300 nM

MYLKLRSETL
Kd [3, 30]: 44.5 nM | Kd [4, 30]: 17700 nM | Kd [20, 30]: 7220 nM | Kd [5, 30]: 18200 nM | Kd [6, 30]: 7590 nM | Kd [7, 30]: 164 nM

TVIDLEPISY
Kd [20, 35]: 8390 nM | Kd [12, 35]: 1.36 nM

FIASKGVKLV
Kd ([1]; source organism: Homo sapiens): 37 nM

QNHKKSAHF
Kd [12, 32]: 412 nM

QLQPFLQPQL
Kd ([1]; source organism: Triticum aestivum): ≥ 10000 nM

TQWCSRSVY
Kd ([13]; source organism: Escherichia coli 101-1): 84.3 nM

GEKSRCYSIY
Kd [3, 36]: ≥ 70000 nM | Kd [4, 36]: ≥ 51800 nM | Kd [20, 36]: 13900 nM | Kd [5, 36]: 3160 nM | Kd [6, 36]: 18000 nM | Kd [23, 36]: ≥ 69900 nM | Kd [24, 36]: 2190 nM | Kd [7, 36]: ≥ 70300 nM

AYATAQEAY
Kd [3, 30]: ≥ 77800 nM | Kd [4, 30]: 642 nM | Kd [20, 30]: ≥ 98000 nM | Kd [5, 30]: 50.6 nM | Kd [6, 30]: ≥ 43100 nM | Kd [7, 30]: ≥ 53900 nM

FMMSRRRLL
Kd [3, 30]: 496 nM | Kd [4, 30]: 2620 nM | Kd [20, 30]: ≥ 78100 nM | Kd [5, 30]: 6730 nM | Kd [6, 30]: ≥ 77900 nM | Kd [7, 30]: 1410 nM

SYEHQTPFEI
Kd [3, 30]: 945 nM | Kd [4, 30]: 7160 nM | Kd [20, 30]: 3680 nM | Kd [5, 30]: 7060 nM | Kd [6, 30]: 10400 nM | Kd [7, 30]: 1240 nM

YMGEDGCWY
Kd [20, 37]: 177 nM | Kd [5, 37]: ≥ 36900 nM | Kd [12, 37]: 14.8 nM

TMADLVYAL
Kd [3, 30]: 6580 nM | Kd [4, 30]: ≥ 23000 nM | Kd [20, 30]: ≥ 62500 nM | Kd [5, 30]: ≥ 93800 nM | Kd [14, 30]: 0.183 nM | Kd [15, 30]: 46.5 nM | Kd [6, 30]: ≥ 77900 nM | Kd [7, 30]: 10100 nM | Kd [16, 30]: 16.2 nM

FLDGVNLVA
Kd [3, 38]: 8810 nM | Kd [4, 38]: 5430 nM | Kd [20, 38]: 9.76 nM | Kd [5, 38]: 17700 nM | Kd [6, 38]: ≥ 77900 nM | Kd [7, 38]: ≥ 77500 nM

ILIEGVFFA
Kd ([1]; source organism: Human alphaherpesvirus 2): 0.16 nM

FQTLMHSPF
Kd [13, 34]: 23.1 nM

ALLAGFMAY
Kd [25, 35]: 1.67 nM | Kd [5, 35]: 80 nM | Kd [12, 35]: 1.14 nM

TTAEEAAGI
Kd ([1]; source organism: Homo sapiens): 4170 nM

LSSSEPHCA
Kd [3, 39]: ≥ 60900 nM | Kd [4, 39]: ≥ 78900 nM | Kd [20, 39]: 4190 nM | Kd [5, 39]: 2350 nM | Kd [6, 39]: ≥ 77900 nM | Kd [7, 39]: ≥ 77500 nM

LYYPSARIVY
Kd [3, 30]: 1910 nM | Kd [4, 30]: 14.6 nM | Kd [20, 30]: ≥ 37800 nM | Kd [5, 30]: 71.8 nM | Kd [6, 30]: 7360 nM | Kd [7, 30]: 2020 nM

MLVTPSMAM
Kd [12, 33]: 3.06 nM | Kd [6, 33]: 6420 nM | Kd [18, 33]: 442 nM

SNAAIGAVF
Kd [12, 33]: 77.8 nM

RVIDPRRCM
Kd [19, 31]: 1150 nM

TCDWTNAGDY
Kd [3, 30]: ≥ 70000 nM | Kd [4, 30]: 2020 nM | Kd [20, 30]: 133 nM | Kd [5, 30]: 672 nM | Kd [6, 30]: ≥ 25000 nM | Kd [7, 30]: ≥ 70300 nM

LIIICCVSG
Kd [12, 40]: 403 nM

AQGKPTLDF
Kd [12, 35]: 3.09 nM

LNINKNGSF
Kd [12, 32]: 479 nM

LPQHLTLRAQ
Kd [17]: ≥ 31700 nM | Kd [18, 33]: 520 nM | Kd [19, 33]: 265 nM

TPQPKPGTRM
Kd [18, 35]: 177 nM | Kd [19, 35]: 39.9 nM

ATVAYFNMVY
Kd [3, 30]: ≥ 30900 nM | Kd [4, 30]: 0.00633 nM | Kd [20, 30]: 893 nM | Kd [25, 30]: 269 nM | Kd [26]: 74.2 nM | Kd [5, 30]: 1210 nM | Kd [6, 30]: 979 nM | Kd [27]: ≥ 70000 nM | Kd [28]: 2330 nM | Kd [7, 30]: 13000 nM | Kd [29]: 549 nM

HTNFESFTV
Kd [3, 38]: ≥ 48200 nM | Kd [4, 38]: 11200 nM | Kd [20, 38]: 440 nM | Kd [5, 38]: 971 nM | Kd [6, 38]: ≥ 36600 nM | Kd [23, 38]: 682 nM | Kd [24, 38]: 182 nM | Kd [7, 38]: ≥ 77500 nM

YVFFEIIHF
Kd [12, 40]: 0.692 nM

SEIKRGLFF
Kd [12, 32]: 323 nM

EIFKHLVFF
Kd [12, 32]: 12.2 nM
